# Assay results taken from patent US20260117274A1, “ORTHOGONALLY CROSSLINKED PROTEINS, METHODS OF MAKING, AND USES THEREOF” (The Research Foundation for The State University of New York, priority 2022, published 2026).
# B1: NSa1(+10)-A13BocK: non-crosslinked +10 charged monobody NSa1 encoding BocK at position 13; SEQ ID NO: 50 (protein)
# chain: MGSSHHHHHHSSGTENLYFQGVSSKPTKLRVVRXTPTSLKIKWDAPAKTVDYYVITYGETGRGGYAWQRFEVPGSKRTATIKGLKPGVDYTITVYAGYKGYPTYYSSPISINYRT
# modifications: BocK non-natural residue at position 13; VARIANT 34 X is 1/2-carboxy-4-aryltriazole lysine or Ne-(tert-butoxycarbonyl) lysine
# B2: NSa1(+10)-A13CATK-1: +10 charged monobody NSa1 encoding CATK-1 at Ala-13, crosslinked to Tyr-92; SEQ ID NO: 50 (protein)
# chain: B1 chain
# modifications: CATK-1 at Ala13 crosslinked to Tyr92; VARIANT 34 X is 1/2-carboxy-4-aryltriazole lysine or Ne-(tert-butoxycarbonyl) lysine
# What was measured:
# HeLa cells = experiment: Flow cytometry uptake of AF488-labeled NSa1(+10) proteins in HeLa cells; assay type: cell-based; conditions: for percentage of fluorescent cells / MFI(R-1) Trial 1 / MFI(R-1) Trial 2 / MFI(R-1) Trial 3: 4 hours; for MFI(R-1) Trial 1 / MFI(R-1) Trial 2 / MFI(R-1) Trial 3: Protein 500 nM, 37°C
# Description: (§1) To assess cellular uptake of the supercharged NSa1 proteins, we first removed the N-terminal His-tag after TEV cleavage to obtain two intact NSa1(+10) mutants encoding either BocK or CATK-1. We then reacted the mutants with Alexa Fluor 488-NHS modest labeling yield of 20-23% (FIG. 22). We then carried out a flow cytometry assay to quantify the uptake efficiency of the NSa1(+10) mutants. In brief, HeLa cells were treated with 100 or 500 nM of NSa1(+10) proteins at 37° C. for 4 hours. After washing cells three times with PBS containing 20 U/mL heparin to remove the surface-bound proteins, cells were collected and analyzed by flow cytometry. We observed significant monobody uptake when protein concentrations reached 500 nM. […] Since the kinetically stable protein folds show enhanced proteolytic resistance due to their rigid conformations with limited local openings, we assessed the effect of orthogonal crosslinking on proteolytic stability of the monobody. Thus, we incubated the CATK-1-crosslinked NSa1(+10) with cathepsin B ¾ an enzyme responsible for the degradation of protein cargoes in the endosomes ¾ and monitored monobody stability by mass spectrometry.
# Fluorescent labeling of NSa1 and flow cytometry. After TEV-cleavage and further cation exchange chromatography, the purified NSa1 proteins were buffer exchanged into the basic buffer (100 mM Pi, 450 mM NaCl, pH 8.3), and then incubated with AF488-NHS (Lumiprobe) (2-fold molar, optimized to afford non-labeled and mono-labeled protein as major species) at 4° C. with gentle shaking in darkness overnight. Then, thorough dialysis was employed to remove excess dye and protein concentrations were determined by Nanodrop (eNSa1=28880 M^−1 cm^−1, eNSa1-plus10=27390 M^−1 cm^−1; CF280=0.11; Aprotein=A280−A493*CF280).
# HeLa cells were seeded in a 48-well plate and grown in DMEM supplemented with 10% FBS and 10 μg/mL Gentamycin (Gibco) and 2 μg/mL Plasmocin at 37° C., 5% CO2 until ˜80% confluency. Cells were washed twice with pre-warmed PBS before switching to serum-free DMEM with Alexa-488 labeled protein. Cells were incubated at 37° C. for 4 hours. The cells were washed three times with PBS (including 20 U/mL heparin), trypsinized, and collected with 1.5 mL tubes. After brief centrifugation (400 g, 5 min) at room temperature, cells were collected and resuspended in PBS for flow cytometry analysis.
# Cathepsin B = molecular target: T1, Cathepsin B (Homo sapiens, UniProt P07858); experiment: NSa1 proteolytical stability assay (QTOF-LC/MS); assay type: in vitro ADME
# T1 construct: purchased Novus Biologicals
# Description: as §1
# NSa1 proteolytical stability assay. In a 1.5-mL microcentrifuge tube, TEV-cleaved, purified NSa1 (1.5 μM in 50 mM phosphate, 500 mM NaCl, pH 7.0) was incubated with Cathepsin B (Novus Biologicals; 0.065 μM) at 37° C. […]
Molecule,percentage of fluorescent cells (HeLa cells; 500 nM) [%],MFI(R-1) Trial 1 (HeLa cells),MFI(R-1) Trial 2 (HeLa cells),MFI(R-1) Trial 3 (HeLa cells),higher mean fluorescence intensity than NSa1(+10)-A13BocK treated cells (HeLa cells; 500 nM) [%],"half-life relative to non-crosslinked NSa1(+10)-A13BocK (Cathepsin B; Cathepsin B, 37°C)",half-life (Cathepsin B; NSa1 1.5 μM with Cathepsin B 0.065 μM at 37°C) [h]
B1,13.6,6726.24,6507.23,6855.84,–,–,–
B2,14.8,9561.61,9020.17,9337.41,40,three times longer,2.1
